Laboratory results reported in article PMC12649893 (Biosensors, 2025).

What was measured:
Settings in all cases: both partners purified
[1] = biological target: T1, Blood dendritic cell antigen 2 of macaca fascicularis (cBDCA-2) extracellular fragment (Macaca fascicularis, UniProt A0A2K5UWP4); experiment: BLI; biotinylated FcγRIIIa on SA sensors (5 μg/mL, to 1 nm), antibodies for 300 s, then antigens 10 μg/mL for 300 s; kinetic buffer pH 7.4, 30 °C; constants from the empirical model Equation (A1), k_diss fixed
T1 construct: Blood dendritic cell antigen 2 (BDCA-2) of Macaca fascicularis, extracellular fragment, residues 45-213 of XP_005570080.1; source: CHO, transient transfection, purified (Ni-NTA, SEC Superdex 75)

[2] = biological target: T2, Nectin-like protein 5 (NECL-5 or CD155) extracellular fragment (UniProt P15151); experiment: BLI; ProA sensors; antibodies loaded at 10 micrograms/mL for 300 s, antigens 10 μg/mL, association 7200 s; 30 °C, PBS, 0.1% Tween 20, 0.1% BSA, pH 7.4; constants from the empirical model Equation (A1), k_diss fixed
T2 construct: Nectin-like protein 5 (NECL-5, CD155, poliovirus receptor), extracellular fragment, residues 28-343 of NP_001129242.2; also called poliovirus receptor; source: CHO, transient transfection, purified (Ni-NTA, SEC Superdex 75)

[3] = biological target: T3, Triggering receptor expressed on myeloid cells 2 (TREM-2) extracellular fragment (UniProt Q9NZC2-1); experiment: as above
T3 construct: Triggering receptor expressed on myeloid cells 2 (TREM-2), extracellular fragment, residues 19-174 of NP_061838.1; source: CHO, transient transfection, purified (Ni-NTA, SEC Superdex 75)

[4] = biological target: T1, Blood dendritic cell antigen 2 of …; experiment: BLI; standard measurement of kinetics with the immobilization of antibodies on AR2G sensors (Sartorius)
[5] = biological target: T1, Blood dendritic cell antigen 2 of …; experiment: BLI; biotinylated FcγRIa on SA sensors (5 μg/mL, to 1 nm), antibodies for 300 s, then antigens 10 μg/mL for 600 s; kinetic buffer pH 7.4, 30 °C; constants from the empirical model Equation (A1), k_diss fixed
[6] = biological target: T1, Blood dendritic cell antigen 2 of …; experiment: BLI; ProA sensors; antibodies loaded at 10 micrograms/mL for 300 s, antigens 10 μg/mL, association 7200 s; 30 °C, PBS, 0.1% Tween 20, 0.1% BSA, pH 7.4; constants from the empirical model Equation (A1), k_diss fixed
[7] = biological target: T1, Blood dendritic cell antigen 2 of …; experiment: BLI; biotinylated FcRn on SA sensors (5 μg/mL, to 1 nm), antibodies 10 μg/mL for 180 s, then antigens 20 μg/mL for 300 s; kinetic buffer pH 6.0, 30 °C; constants from the empirical model Equation (A1), k_diss fixed
[8] = biological target: T2, Nectin-like protein 5 (NECL-5 or CD155) …; experiment: BLI; biotinylated FcγRIIIa on SA sensors (5 μg/mL, to 1 nm), antibodies for 300 s, then antigens 10 μg/mL for 300 s; kinetic buffer pH 7.4, 30 °C; constants from the empirical model Equation (A1), k_diss fixed
[9] = biological target: T1, Blood dendritic cell antigen 2 of …; experiment: BLI; ProA sensors; antibodies loaded at 10 micrograms/mL for 300 s, antigens 10 μg/mL, association 7200 s; 30 °C, PBS, 0.1% Tween 20, 0.1% BSA, pH 7.4; constants from the empirical model Equation (A1), k_diss fixed; remark: listed apart in the source
[10] = biological target: T2, Nectin-like protein 5 (NECL-5 or CD155) …; experiment: BLI; standard measurement of kinetics with the immobilization of antibodies on AR2G sensors (Sartorius)
[11] = biological target: T2, Nectin-like protein 5 (NECL-5 or CD155) …; experiment: BLI; biotinylated FcγRIa on SA sensors (5 μg/mL, to 1 nm), antibodies for 300 s, then antigens 10 μg/mL for 600 s; kinetic buffer pH 7.4, 30 °C; constants from the empirical model Equation (A1), k_diss fixed
[12] = biological target: T2, Nectin-like protein 5 (NECL-5 or CD155) …; experiment: BLI; ProA sensors; antibodies loaded at 10 micrograms/mL for 300 s, antigens 10 μg/mL, association 7200 s; 30 °C, PBS, 0.1% Tween 20, 0.1% BSA, pH 7.4; constants from the empirical model Equation (A1), k_diss fixed; remark: listed apart in the source
[13] = biological target: T2, Nectin-like protein 5 (NECL-5 or CD155) …; experiment: BLI; biotinylated FcRn on SA sensors (5 μg/mL, to 1 nm), antibodies 10 μg/mL for 180 s, then antigens 20 μg/mL for 300 s; kinetic buffer pH 6.0, 30 °C; constants from the empirical model Equation (A1), k_diss fixed

T2 sequence (P15151 28-343): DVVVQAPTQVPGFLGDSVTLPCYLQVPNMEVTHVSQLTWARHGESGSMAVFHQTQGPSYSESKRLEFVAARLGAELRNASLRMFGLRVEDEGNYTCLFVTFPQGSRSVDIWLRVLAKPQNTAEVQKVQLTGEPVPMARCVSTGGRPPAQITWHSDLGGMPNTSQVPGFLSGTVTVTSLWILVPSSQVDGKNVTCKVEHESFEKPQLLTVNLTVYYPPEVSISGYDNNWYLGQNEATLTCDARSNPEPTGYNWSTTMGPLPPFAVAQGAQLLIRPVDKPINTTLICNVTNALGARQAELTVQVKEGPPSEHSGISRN
T3 sequence (Q9NZC2 19-174): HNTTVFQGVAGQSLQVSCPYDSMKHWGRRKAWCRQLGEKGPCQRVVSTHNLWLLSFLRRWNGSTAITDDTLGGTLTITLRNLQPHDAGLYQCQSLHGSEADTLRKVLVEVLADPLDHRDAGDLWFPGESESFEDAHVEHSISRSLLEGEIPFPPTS

| kon [1] [M⁻¹ s⁻¹] | binding result [2] | binding result [3] | koff [4] [s⁻¹] | kon [4] [M⁻¹ s⁻¹] | kon [5] [M⁻¹ s⁻¹] | kon [6] [M⁻¹ s⁻¹] | kon [7] [M⁻¹ s⁻¹] | kon [8] [M⁻¹ s⁻¹] | binding result [9] | koff [10] [s⁻¹] | kon [10] [M⁻¹ s⁻¹] | kon [11] [M⁻¹ s⁻¹] | kon [12] [M⁻¹ s⁻¹] | kon [13] [M⁻¹ s⁻¹] | Binder |
| --- | --- | --- | --- | --- | --- | --- | --- | --- | --- | --- | --- | --- | --- | --- | --- |
| 470000 | no binding (tested: 10 μg/mL) | no binding (tested: 10 μg/mL) | 3.72e-05 | 134000 | 265000 | 12000 | 180000 |  |  |  |  |  |  |  | AB1 antibody specific to BDCA-2 (BIIB059) (antibody, V domains shown) VH: DVQLVESGGGLVKPGGSLRLSCAASGFTFSTYTMSWVRQAPGKGLEWVATISPGDSFGYYYPDSVQGRFTISRDNAKNSLYLQMNSLRAEDTAVYYCTRDIYYNYGAWFAYWGQGTLVTVSS VL: DIQLTQSPSSLSASVGDRVTITCKASQSVDYDGDSYMNWYQQKPGKAPKLLIYAASTLESGVPSRFSGSGSGTDFTLTISSLQPEDFATYYCQQANEDPRTFGQGTKVEIK |
|  |  | no binding (tested: 10 μg/mL) |  |  |  |  |  | 39500 | no binding (tested: 10 μg/mL) | 0.00105 | 179000 | 99000 | 52000 | 20000 | AB2 antibody specific to NECL-5 (NTX1088) (antibody, V domains shown) VH: QVQLVQSGAEVKKPGASVKVSCKATGYTFSNYWIEWVRQAPGQGLEWIGEIFPGSGRINFNEKFKGRVTFTADTSISTTYMELSRLRSDDTAVYYCARTKIYGNSFDYWGQGTLVTVSS VL: DIQMTQSPSSLSASVGDRVTITCKASQDVGTAVVWYQQKPGKAPKLLIYWASSRHEGVPDRFSGSGSGTDFTLTISSLQPEDFADYFCQQYSRYPLTFGQGTKLEIK |
